Molecular target: sh3k1_human SH3KBP1 (UniProt Q96B97)

effect of a mutation on the interaction: decreasing interaction
Substance: Polyubiquitin-C (Homo sapiens) (from UniProt P0CG48) K6E

From IntAct's records for PubMed 18680311
